This is an account of results in patent US20220064310A1 (DEVELOPMENT CENTER FOR BIOTECHNOLOGY, published 2022).

In assay [1] the target is T1, human CSF-1R-Fc protein (M-CSF R/CD115 Fc chimera, R&D Systems) (human, UniProt P07333 20-512).
T1 construct: Fc part of the bought chimera not given
The experiment in a line: ELISA, 100 ng human CSF-1R-Fc coated, four parameter logistic fit. Here is the method:
(§1) After binding and washing, the bound mAb AB21 was assessed using a horseradish peroxidase conjugated secondary antibody.
(§2) One hundred (100) ng of human CSF-1R-Fc protein was coated on a 96-well ELISA plate, and the plate was further washed with PBS. Serial dilutions from 1×10⁻¹² to 1×10⁻⁸ M of AB21 mAb antibody were added to the plate, and the plate was incubated at 37° C. for 1 hour. A goat anti-mouse IgG conjugated with horseradish peroxidase (HRP) was added. After 1 hour, 3,3′,5,5′-Tetramethylbenzidine (TMB) was added and OD450 was read. Every study was repeated three times. Data were presented as mean SD. OD readings and concentrations of antibodies were used to make a multiple scatter plot using GraphPad Prism 5. The values were predicted by four parameter logistic fit.
Background: ELISA stands for enzyme-linked immunosorbent assay.

In assay [2] the target is T2, CSF-1R ECD variant 228-233A (human, UniProt P07333 20-512).
T2 chain: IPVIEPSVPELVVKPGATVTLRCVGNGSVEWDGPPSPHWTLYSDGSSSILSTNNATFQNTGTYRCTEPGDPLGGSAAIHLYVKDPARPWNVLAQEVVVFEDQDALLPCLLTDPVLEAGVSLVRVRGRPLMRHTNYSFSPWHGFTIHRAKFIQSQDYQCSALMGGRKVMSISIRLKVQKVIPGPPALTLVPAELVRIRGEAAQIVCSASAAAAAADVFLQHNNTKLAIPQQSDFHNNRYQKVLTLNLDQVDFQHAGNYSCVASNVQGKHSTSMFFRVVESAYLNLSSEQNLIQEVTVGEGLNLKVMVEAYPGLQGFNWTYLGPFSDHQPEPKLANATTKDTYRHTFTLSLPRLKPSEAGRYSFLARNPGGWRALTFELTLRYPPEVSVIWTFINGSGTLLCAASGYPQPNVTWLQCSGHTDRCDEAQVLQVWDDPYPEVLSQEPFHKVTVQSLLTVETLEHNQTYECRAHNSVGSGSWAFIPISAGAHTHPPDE
Description: ELISA, coated CSF-1R ECD variant 228-233A, AB21 titrated, Abs450. The procedure:
as §2
To determine the binding epitopes of anti-CSF-1R antibody AB21, different CSF-1R extracellular domain variants that certain residues were replaced with alanine were constructed. […] After the variant proteins were purified, the binding affinity of AB21 mAb to these CSF-1R-ECD variants were analyzed by ELISA with the process described in Example 1.

The target of assay [3] is T1, human CSF-1R-Fc protein (M-CSF R/CD115 …). The experiment in a line: ELISA, coated M-CSF R/CD115 Fc chimera (R&D), AB21 titrated, goat anti-mouse IgG-HRP, Abs450. The procedure: as §1, §2
The target of assay [4] is T3, human CSF-1R extracellular domain (CSF-1R-ECD) (human, UniProt P07333 20-512). The experiment in a line: SPR BIAcore T200, AB21 amine-coupled, CSF-1R-ECD 0.3125-40 nM as analyte, 25 C. An excerpt:
(§3) To know the biding kinetics difference among individual antibodies, surface plasmon resonance (SPR) measurement with a BIAcore T200 (BIAcore, Inc., Piscataway, N.J.) was used as previously described (Karlsson & Fait, (1997) J. Immunol Methods 200:121-133). Carboxymethylated dextran biosensor chips (CMS, BIAcore Inc.) were activated with N-ethyl-N′-(3-dimethyl aminopropyl)-carbodiimide hydrochloride (EDC) and N-hydroxy succinimide (NHS) according to the supplier's instructions. AB21 mAb was diluted with 10 mM sodium acetate, pH 4.8, into 5 microgram/ml before injection at a flow rate of 20 micro L/minute to achieve approximately 100 response units (RU) of coupled protein followed by the injection of 1M ethanolamine to block unreacted groups. For kinetics measurements, two-fold serial dilutions of CSF-1R-ECD (0.3125 nM to 40 nM) were injected in HBS-P BIAcore running buffer provided by the manufacturer (BIAcore, Inc., Piscataway, N.J.) at 25° C. at a flow rate of 30 μL/min, and binding responses on the AB21 mAb were corrected by subtraction of responses on a blank flow cell. Association rates (kon or ka) and dissociation rates (koff or kd) were calculated using a simple one-to-one Langmuir binding model with separate fittings of kon and koff was used. (BIAcore™ Evaluation Software version 3.2).
(In SPR one partner is held on a chip, and binding of the other changes the refractive index at the surface.)

Assay [5] deals with T3, human CSF-1R extracellular domain …. Description: Biacore T200 SPR, AB21 amine-coupled on the chip, CSF-1R-ECD injected at 0.3125 to 40 nM, 1:1 Langmuir fit.
Description: as §3

For assay [6], the target named is T4, human CSF-1R on the cell surface (THP-1 cells, endogenous); Ba/F3 cells stably expressing full-length human … (human, UniProt P07333 20-972).
T4 construct: whole, on cells; also called Ba/F3-CSF-1R; Ba/F3-hCSF-1R
Description: flow cytometry on THP-1 cells, FITC anti-mouse secondary antibody, readout CD115+ of single cells (%). The procedure: In addition to binding CSF-1R ECD in vitro, antibodies of the invention can also bind CSF-1R on cells. In this example, THP-1 cells (human monocytic cell line, ATCC® TIB-202™) were stained in different concentrations of antibodies (AB21) from 6 to 0.625 μg/ml. After washing, cells were stained with secondary antibody FITC anti-mouse (1:500 dilution). Cells were fixed with a fixation buffer (FluroFix™ buffer, Biolegend) and analyzed with LSRFortessa FACS analyzer (Becton Dickson, US). […] The dose-dependent binding fits a sigmoid curve in the semi-log plot, indicating binding to a specific site (i.e., the antibody binds specifically to the target on the THP-1 cells).
(A flow cytometer gives signals particle by particle.)

For assay [7], the target named is T5, CSF-1R-ECD-human Fc (in house) (human, UniProt P07333 20-512).
T5 construct: In-house fusion; also called CSF-1R-ECD-hFc; CSF1R-ECD-hFc; not shown: human Fc
Description: blocking ELISA: coated CSF-1R-ECD-human Fc, AB21 titrated together with M-CSF, bound CSF-1 detected with biotinylated anti-CSF-1 BAF216 and streptavidin-HRP, Abs450. The procedure: CSF-1R-ECD-human Fe (in house) is diluted to 1.2 μg/ml with coating buffer and coating overnight at 4° C. After incubation step, plates were washed 1 time with the wash buffer and blocking with 1% casein blocking buffer at room temperature for 2 hours. Different dilutions of purified AB21 antibodies were incubated with 250 ng/ml of M-CSF (R&D system, 216-GMP-025) in dilution buffer at 37° C. for 1 hour. After 5 times of wash, the ligand which bound to the receptor can be detected by 50 ng/ml biotinylated […] clone BAF216 (R&D Systems, UK) and 1:5000 diluted streptavidin HRP (Roche Diagnostics GmbH, DE, Cat. No. 11089153001) after 1 hour incubation. Anti CSF-1R SC 2-4A5 (Santa Cruz Biotechnology, US), which inhibits the ligand-receptor interaction, was used as positive control. Plates were developed with TMB Microwell Peroxidase Substrate (KPL, 95059-154). Absorbance was measured at 450 nm. A decrease of absorbance is found, if the anti-CST-1R antibody causes a release of CSF-1 from the dimeric complex. […] Therefore, antibodies of the invention can be used to prevent or treat diseases mediated by CSF-1R or CSF-1.

The target in another assay is T6, mouse CSF-1R (mouse, UniProt P09581 20-511, limits assumed).
T6 sequence (looked up): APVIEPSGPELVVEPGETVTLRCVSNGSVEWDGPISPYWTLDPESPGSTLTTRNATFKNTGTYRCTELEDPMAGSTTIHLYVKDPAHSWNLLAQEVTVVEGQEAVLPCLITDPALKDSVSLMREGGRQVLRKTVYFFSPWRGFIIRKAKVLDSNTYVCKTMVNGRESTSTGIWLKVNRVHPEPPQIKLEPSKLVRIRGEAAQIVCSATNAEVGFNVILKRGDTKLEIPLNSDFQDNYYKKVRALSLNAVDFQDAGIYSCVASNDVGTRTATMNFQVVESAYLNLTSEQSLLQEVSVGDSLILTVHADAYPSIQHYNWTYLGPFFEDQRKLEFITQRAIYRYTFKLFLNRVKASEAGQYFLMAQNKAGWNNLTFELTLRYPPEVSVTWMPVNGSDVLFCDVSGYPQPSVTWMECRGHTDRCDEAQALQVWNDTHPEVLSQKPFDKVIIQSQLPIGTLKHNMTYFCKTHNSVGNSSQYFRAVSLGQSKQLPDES
Description: not described.

B1: mouse hybridoma anti-human CSF-1R antibody mAb AB21 (antibody, V domains shown)
VH: EVQLQQSGPELEKPGASVKISCKASGYSFTGYNMNWVKQSNGKSLEWIGNIDPYYGGTTYNQKFKGKATLTVDKSSSTAYMQLKSLTSEDSAVYYCARRGDYSGSSYWYFDVWGAGTTVTVSS
VL: DIQMTQSSSYLSVSLGGRVTITCKASDHINNWLAWYQQKPGNAPRLLISGATSLETGVPSRFSGSGSGKDYTLSITSLQTEDVVTYYCQQYWSTPFTFGSGTKLEIK
notes: Mouse monoclonal antibody purified from hybridoma ascites (Protein A); also called AB21 mAb; mAb 21
On to B1, for which the Kd in assay [1] was determined as 0.745 nM; in assay [4] it was 0.123 nM. In addition, the binding result in assay [2] is recorded as “no binding (tested: about 3e-8 M (log -7.5 on the axis))”; with mouse CSF-1R, “no binding”. Also, the EC50 in assay [3] was 0.745 nM; in assay [6], 0.374 nM. In addition, the koff in assay [5] is 4.9e-05 s⁻¹. For the same molecule, the kon in assay [5] was 399000 M⁻¹ s⁻¹. In addition, the “IC50 (read off the curve)” value in assay [7] was around 2 nM.

What is called Kd is the constant that tells how readily two partners part at equilibrium. High values mean lower affinity, low ones higher affinity. Usually EC50 stands for the concentration at which the effect is half-maximal. A low value points to an effect from little substance. Broadly, the koff is the first-order rate constant of dissociation. As a reminder, the kon is the second-order rate constant of association. The low end stands for slower complex formation, the high end for faster complex formation.
